From US10077295B2, “Glycoproteins having lipid mobilizing properties and therapeutic uses thereof” (Aston University, priority 2010, dated 2018)

Key:
Type in all cases: in vivo, mouse
[1] = system: gastrocnemius muscle of ob/ob mice; test: Proteasome activity and Western blots in gastrocnemius muscle of ZAG-treated ob/ob mice
Method: Measurement of Proteasome and Caspase Activity. […] Gastrocnemius muscle was homogenised in 20 mM Tris, pH7.5, 2 mM ATP, 5 mM MgCl2 and 50 mM DTT at 4° C., sonicated and centrifuged at 18,000 g for 10 min at 4° C. to pellet insoluble material, and the resulting supernatant was used to measure ‘chymotrypsin-like’ enzyme activity in the presence or absence of the proteasome inhibitor lactacystin (10 μM). Only lactacystin suppressible activity was considered as true proteasome activity. The activity of caspase-3 was determined by the release of AMC from AcAsp.Gly.Val.Asp.AMC (SEQ ID NO: 3), and the activity of caspase-8 was determined by the release of 7-amino-4-trifluromethylcoumarin (AFC) from the specific substrate Z-Ile Glu Phe Thr Asp-AFC (SEQ ID NO: 4), using the supernatant from above (50 μg protein), and either the caspase-3 or -8 substrate (10 μM) for 1 h at 37° C., in the presence or absence of the caspase-3 (AcAspGluValAsp-CHO) (SEQ ID NO: 5) or caspase-8 (Ile Glu Phe Thr Asp-CHO) (SEQ ID NO: 6) inhibitors (100 μM). The increase in fluorescence due to […] was determined as above, while the increase in fluorescence due to AFC was measured with an excitation wavelength of 400 nm and an emission wavelength of 505 nm. The difference in values in the absence and presence of the caspase inhibitors was a measure of activity.
(§1) Western Blot Analysis. Freshly excised gastrocnemius muscles were washed in PBS and lysed in PHOSPHOSAFE™ Extraction Reagent for 5 min at room temperature followed by sonication at 4° C. The lysate was cleared by centrifugation at 18,000 g for 5 min at 4° C. and samples of cytosolic protein (5 μg) were resolved on 12% sodium dodecyl sulfate-polyacrylamide gel electrophoresis at 180V for approximately 1 h. This was followed by transference to 0.45 μm nitrocellulose membranes, which were then blocked with 5% Marvel in Tris-buffered saline, pH 7.5, at 4° C. overnight. Both primary and secondary antibodies were used at a dilution of 1:1000 except anti-myosin (1:250). Incubation was for 1 h at room temperature, and development was by ECL. Blots were scanned by a densitometer to quantify differences.

[2] = system: skeletal muscle of ob/ob mice; test: Protein synthesis and degradation in skeletal muscle of ZAG-treated ob/ob mice; settings: ob/ob mice treated 5 days
Method: Protein Synthesis and Degradation in Muscle. The method for the determination of protein synthesis and degradation in muscle has been previously described (Smith, K. L. & Tisdale, M. J. Increased protein degradation and decreased protein synthesis in skeletal muscle during cancer cachexia. Br. J. Cancer 67, 680-685 (1993)). […] Protein synthesis was measured by the incorporation of L-[2,6-^3H] phenylalanine (640 MBq) into acid-insoluble material using a 2 h period in which the muscles were incubated at 37° C. in RPMI/640 without phenol red and saturated with O2:CO2 (19:1). Muscles were then rinsed in non-radioactive medium, blotted and homogenised in 2% perchloric acid. The rate of protein synthesis was calculated by dividing the amount of protein-bound radioactivity by the amount of acid soluble radioactivity. Protein degradation was determined by the release of tyrosine from gastrocnemius muscle over a 2 h period in 3 ml of oxygenated Krebs-Henseleit buffer, pH7.4, containing 5 mM glucose and 0.5 mM cycloheximide.

adipocytes, BAT = test: Expression of ZAG, HSL, UCP in adipose tissue/adipocytes of mice (5 day ZAG study)
Method: as §1
A 5 day study was performed where ZAG was administered at 35 μg per day i.v. on a daily basis for 5 days. At the end of the experiment tissues were removed and blotted, or functional assays were carried out with isolated adipocytes. […] When ep adipocytes were prepared and maintained in tissue culture (RPMI 1640+10% FCS) ZAG expression was maintained for a further 3 days, even though no ZAG was added to the culture medium (FIG. 6B). […] In fact, as discussed above, too much ZAG is more likely to lead to resistance rather than an increased response.

[3] = system: adipocytes and gastrocnemius muscle of ob/ob mice; test: Glucose uptake into adipocytes and gastrocnemius muscle of ZAG-treated ob/ob mice
Method: Glucose Uptake into Adipocytyes. Isolated adipocytes (5×10^4) were washed twice in 1 ml Krebs-Ringer bicarbonate buffer, pH 7.2 (KRBS) and further incubated for 10 min at room temperature in 0.5 ml KRBS containing 18.5 MBq 2-[1-^14C] deoxy-D-glucose and non-radioactive 2-deoxy-D-glucose to a final concentration of 0.1 mM. Uptake was terminated by the addition of 1 ml ice-cold glucose-free KRBS, and the cells were washed three times with 1 ml KRBS, lysed by addition of 0.5 ml 1M NaOH and left for at least 1 h at room temperature before the radioactivity was determined by liquid scintillation counting.
Glucose Uptake into Gastrocnemius Muscle—Gastrocnemius muscles were incubated in Krebs-Henseleit bicarbonate buffer for 45 min at 37° C. and then incubated for a further 10 min in 5 ml Krebs-Henseleit buffer containing 185M Bq 2-[1-^14C] deoxy-D-glucose and non-radioactive 2-deoxy-D-glucose to a final concentration of 0.1 mM. The muscles were then removed and washed in 0.9% NaCl for 5 min followed by dissolution in 0.5 ml 1M NaOH and the radioactivity was determined by liquid scintillation counting.

ob/ob mice = test: Oral (p.o.) administration of rhZAG to ob/ob mice
Method: 50 ug per day of rhZAG was administered p.o. to Aston ob/ob mice. Oral dosing was achieved by assuming 5 mL/day consumption of water, and adding ZAG to achieve 50 ug per day dose based on that assumption. No attempt was made to correct for variations of consumption on a given day.
Experiment One (8 Day Oral ZAG Study): 50 ug of ZAG was administered p.o. daily in drinking water.
Experiment Two (8 Day Oral ZAG Plus Propranolol Study): 50 ug of ZAG administered p.o. daily, with and without propranolol. Propanolol blocks all of the effects of ZAG including decrease in body weight and blood glucose in the tolerance test, also blocking the rise in body temperature and the rise in plasma mouse ZAG, confirming that this occurs through a beta adrenergic receptor. […] It appears to do this by preventing the rise in mouse ZAG in the serum after oral administration of the rhZAG.
Experiment Three (Oral Study): ZAG administered p.o. daily over an extended time frame, with a recovery group split from the treated group beginning at 30 days (data not shown).

[4] = 50 ug p.o. daily in drinking water, 8 days

B1: ZAG: recombinant full length human zinc-α2-glycoprotein (SEQ ID NO: 1) secreted by transfected HEK293F cells; lipid mobilizing factor (protein, listed as Homo sapiens)
chain: QENQDGRYSLTYIYTGLSKHVEDVPAFQALGSLNDLQFFRYNSKDRKSQPMGLWRQVEGMEDWKEDSQLQKAREDMETLKDIVEYYNDSNGSHVLQGRFGCEIENNRSSGAFWKYYYDGKDYIEFNKEIPAWVPFDPAAQITKQKWEAEPVYVQRAKAYLEEECPATLRKYLKYSKNILDRQDPPSVVVTSHQAPGEKKKLKCLAYDFYPGKIDVHWTRAGQVQEPELRGDVLHNGNGTYQSWVVVAVPPQDTAPYSCHVQHSSLAQPLVVPWEAS
- expression of 20S proteasome α-subunits and p42 ([1]; gastrocnemius muscle): decreased expression
- phosphorylated forms of PKR and eIF2α ([1]; gastrocnemius muscle): reduction in the level of phosphorylated forms
- proteasome 'chymotrypsin-like' enzyme activity ([1]; gastrocnemius muscle): decreased activity
- myosin levels ([1]; skeletal muscle): increased
- decrease in protein degradation [2]: 60%
- protein synthesis in soleus muscle [2]: over a two-fold increase
- ZAG expression in epididymal, subcutaneous and visceral fat (adipocytes, BAT; 35 μg per day i.v., 5 days): about two-fold
- time increased response to isoprenaline was maintained in tissue culture without ZAG (adipocytes, BAT; adipocytes from ZAG treated mice, isoprenaline 10 μM): 4 days
- expression of phospho HSL in adipocytes (adipocytes, BAT; adipocytes of non-obese mice, 3 h): increased expression of phospho HSL
- expression of UCP1 and UCP3 in BAT (adipocytes, BAT; ob/ob mice treated 5 days): increased the expression of UCP1
- glucose uptake into gastrocnemius muscle ([3]; absence and presence of insulin (100 nM)): significantly enhanced
- glucose uptake into epididymal, visceral and subcutaneous adipocytes ([3]; absence of insulin, ob/ob mice treated 5 days): increased glucose uptake
- outcome of oral ZAG (ob/ob mice; [4]): weight loss, increase in body temperature and a lowering of urinary glucose occurred
- rhZAG in serum after oral administration (ob/ob mice; [4]): absence of rhZAG in serum
- endogenous murine ZAG after oral rhZAG (ob/ob mice; 50 ug p.o. daily, 8 days): increase in murine ZAG in serum and WAT
- body weight lost (ob/ob mice; p.o. daily, half way through the extended study): 13.5%
- persistence of orally administered rhZAG in the stomach (ob/ob mice; p.o., ob/ob mice): ≥ 24 h
- time before 50% reversion of urinary glucose to control after treatment stop (ob/ob mice; recovery group): 12 days
